In article PMC3458539 (Nucleic Acids Research, 2012):
Numbering of substitutions follows the chain as printed.

B1: Vibrio cholerae Hfq (wild-type) (natural protein)
chain: MAKGQSLQDPFLNALRRERIPVSIYLVNGIKLQGQIESFDQFVILLKNTVNQMVYKHAISTVVPARPVSHHSGDRPASDRPAEKSEE
B2: VcHfqY25D (distal face RNA-binding mutant of Vibrio cholerae Hfq) (natural protein)
chain: B1 chain with Y25D
B3: VcHfqK56A (proximal face RNA-binding mutant of Vibrio cholerae Hfq) (natural protein)
chain: B1 chain with K56A

Assays:
[1] = biological target: the molecule itself; assay: native MS
[2] = biological target: the molecule itself; assay: SEC

Protein	stoichiometry N [1]	stoichiometry N [2]
B1	6	–
B2	–	6
B3	–	6
